The target in this assay is mouse ART2 (ART2.2) on T cells (mouse) (UniProt O35975). Nature of the assay: cell-based or functional assay.
Chain of mouse ART2 (ART2.2) on T cells (mouse) (O35975 21-260): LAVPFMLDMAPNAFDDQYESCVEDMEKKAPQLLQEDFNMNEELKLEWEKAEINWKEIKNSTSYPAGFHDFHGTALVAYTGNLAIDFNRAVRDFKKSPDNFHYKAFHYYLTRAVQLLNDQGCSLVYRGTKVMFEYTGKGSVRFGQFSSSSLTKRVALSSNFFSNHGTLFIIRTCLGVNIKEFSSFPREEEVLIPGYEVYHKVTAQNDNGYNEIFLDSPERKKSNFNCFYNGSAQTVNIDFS

ART2-blocking nanobody (s+16a) (VHH) registered an ADP-ribosylation of CD4 T cells (eNAD staining, flow cytometry) of 9.3% and an ADP-ribosylation of CD8 T cells (eNAD staining, flow cytometry) of 12.9%.

The values above are taken from US20250382381A1.
